Test results as given in patent publication US20070286806A1, “Methods and Compositions for Modulating a Steroid Receptor” (Mount Sinai Hospital, priority 2004, published 2007).
Residues, ends and D or L forms follow the SMILES beside them. *: point of attachment. Cbz = O=C(OCc1ccccc1)*

T1: His-PSF (6xHis-tagged full length human PSF, amino acid 1-707) (human, UniProt P23246 1-707)
T1 construct: Expressed in 293T or SHM cells (co-immunoprecipitation, reporter assays) or translated in rabbit reticulocyte lysate with ^35S methionine (GST pulldown); 1 only as 'e.g.' of wild type PSF; also called His tagged PSF; His tagged PSF1-707; not shown: N-terminal 6xHis tag of vector pcDNA3.1 6xHis
T1 sequence: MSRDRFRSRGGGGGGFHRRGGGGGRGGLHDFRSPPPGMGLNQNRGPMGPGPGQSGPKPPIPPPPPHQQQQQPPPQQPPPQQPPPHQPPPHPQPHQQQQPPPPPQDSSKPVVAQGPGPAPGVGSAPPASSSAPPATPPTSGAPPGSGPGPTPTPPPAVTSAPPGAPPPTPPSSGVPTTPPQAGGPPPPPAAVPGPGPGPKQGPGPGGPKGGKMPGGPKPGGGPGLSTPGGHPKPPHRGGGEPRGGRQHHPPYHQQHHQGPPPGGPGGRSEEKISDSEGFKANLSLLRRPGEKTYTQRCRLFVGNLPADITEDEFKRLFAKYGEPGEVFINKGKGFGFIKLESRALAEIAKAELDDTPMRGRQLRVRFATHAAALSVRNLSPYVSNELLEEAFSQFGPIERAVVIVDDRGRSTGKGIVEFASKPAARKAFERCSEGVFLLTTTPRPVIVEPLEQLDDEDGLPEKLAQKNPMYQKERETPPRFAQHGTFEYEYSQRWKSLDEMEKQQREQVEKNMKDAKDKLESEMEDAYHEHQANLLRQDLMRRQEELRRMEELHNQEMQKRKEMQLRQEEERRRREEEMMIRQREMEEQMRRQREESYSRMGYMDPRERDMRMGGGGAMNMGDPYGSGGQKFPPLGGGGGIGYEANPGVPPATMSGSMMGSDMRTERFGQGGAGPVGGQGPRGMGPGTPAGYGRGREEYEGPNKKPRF

B1: GST-PR fusion protein, amino acids 164-456 of PRB (other)
chain: LMSRSGCKVGDSSGTAAAHKVLPRGLSPARQLLLPASESPHWSGAPVKPSPQAAAVEVEEEDSSESEESAGPLLKGKPRALGGAAAGGGAAACPPGAAAGGVALVPKEDSRFSAPRVALVEQDAPMAPGRSPLATTVMDFIHVPILPLNHALLAARTRQLLEDESYDGGAGAASAFAPPRTSPCASSTPVAVGDFPDCAYPPDAEPKDDAYPLYSDFQPPALKIKEEEEGAEASARSPRSYLVAGANPAAFPDFPLGPPPPLPPRATPSRPGEAAVTAAPASASVSSASSSGS
notes: also called other segments of PR; not shown: glutathione-S-transferase (GST) of vector pGEX 5X-2
B2: GST-PR fusion protein, amino acids 456-556 of PRB (other)
chain: STLECILYKAEGAPPQQGPFAPPPCKAPGASGCLLPRDGLPSTSASAAAAGAAPALYPALGLNGLPQLGYQAAVLKEGLPQVYPPYLNYLRPDSEASQSPQ
notes: as for B1
B3: GST-PR fusion protein, amino acids 650-933 of PRB (other)
chain: ALDAVALPQPLGVPNESQALSQRFTFSPGQDIQLIPPLINLLMSIEPDVIYAGHDNTKPDTSSSLLTSLNQLGERQLLSVVKWSKSLPGFRNLHIDDQITLIQYSWMSLMVFGLGWRSYKHVSGQMLYFAPDLILNEQRMKESSFYSLCLTMWQIPQEFVKLQVSQEEFLCMKVLLLLNTIPLEGLRSQTQFEEMRSSYIRELIKAIGLRQKGVVSSSQRFYQLTKLLDNLHDLVKQLHLYCLNTFIQSRALSVEFPEMMSEVIAAQLPKILAGMVKPLLFHKK
notes: as for B1
B4: PSF-1-662: truncated form of PSF, amino acids 1-662 (protein, UniProt P23246 1-662, looked up, fragment)
chain: MSRDRFRSRGGGGGGFHRRGGGGGRGGLHDFRSPPPGMGLNQNRGPMGPGPGQSGPKPPIPPPPPHQQQQQPPPQQPPPQQPPPHQPPPHPQPHQQQQPPPPPQDSSKPVVAQGPGPAPGVGSAPPASSSAPPATPPTSGAPPGSGPGPTPTPPPAVTSAPPGAPPPTPPSSGVPTTPPQAGGPPPPPAAVPGPGPGPKQGPGPGGPKGGKMPGGPKPGGGPGLSTPGGHPKPPHRGGGEPRGGRQHHPPYHQQHHQGPPPGGPGGRSEEKISDSEGFKANLSLLRRPGEKTYTQRCRLFVGNLPADITEDEFKRLFAKYGEPGEVFINKGKGFGFIKLESRALAEIAKAELDDTPMRGRQLRVRFATHAAALSVRNLSPYVSNELLEEAFSQFGPIERAVVIVDDRGRSTGKGIVEFASKPAARKAFERCSEGVFLLTTTPRPVIVEPLEQLDDEDGLPEKLAQKNPMYQKERETPPRFAQHGTFEYEYSQRWKSLDEMEKQQREQVEKNMKDAKDKLESEMEDAYHEHQANLLRQDLMRRQEELRRMEELHNQEMQKRKEMQLRQEEERRRREEEMMIRQREMEEQMRRQREESYSRMGYMDPRERDMRMGGGGAMNMGDPYGSGGQKFPPLGGGGGIGYEANPGVPPATMSGSMMGSDM

Experiments:
PRA and PRB protein = experiment: PR protein level by western blot of whole cell lysate after co-transfection in SHM cells; type: cell-based
Procedure: FIG. 5. […] (A) SHM cells were transient transfected (eighteen hours) with PRA or PRB expression vector with or without increasing doses (0.2, 0.5, 1.0 and 2.0 μg) of His-PSF vector as indicated. Whole cell lysate was analyzed by western blot with PR or His tag antibody. NS=non-specific binding. (B) SHM cells were transient transfected (eighteen hours) with PRA or PRB expression vector together with 2.0 μg His tagged PSF1-707 or truncated PSF1-662. Culture media was added with or without 60 nM MG132 (Z-Leu-Leu-Leu-a1) as indicated for another 6 hours. Whole cell lysate was analyzed by western blot with PR or His tag antibody. Gβ protein was also detected as the cell lysate loading control.
For immunoprecipitation of the endogenous PR and PSF, T47D cells cultured in 150 mm dishes were lysed in 800 μl NETN buffer containing 150 mM NaCl plus protease inhibitor cocktail. Cell lysate were then incubated with 5 μg of PR or PSF, or control mouse IgG at 4° C. overnight, followed by the addition of 30 μl of protein A/G PLUS-agarose beads (Santa Cruz) for another two hours at 4° C. Resins were washed with NETN containing 250 mM NaCl and eluted with 1×Laemmli buffer. The eluted proteins along with the whole cell extract were western blotted by PR or PSF antibody. • GST pulldown assay: GST pulldown assay was performed as previously described (20). GST and its fusion proteins were first immobilized to glutathione-Sepharose 4B affinity matrix. The matrix was then incubated at 4° C. overnight with rabbit reticulocyte lysate (Promega) containing PR or His-PSF transcribed and translated in presence of ^35S methionine. The matrix was washed three times with cold NETN buffer before adding 1 ×Laemmli buffer to elute associated proteins. The eluted proteins were separated on 10% SDS-PAGE gel. Gels were treated with Enhancer (NEN, Boston, US) dried and analyzed by autoradiography. • Cell culture and transient transfection: SHM cells and 293T cells were maintained in DMEM plus 5% FCS (Sigma) as described before (22). For experiments involving steroid exposure, the medium was substituted with phenol red free DMEM containing 5% charcoal-treated fetal bovine serum (Hyclone, Utah, USA). Transfection was performed according to manufacturers protocol (Fementas). Cells were seeded at a density to achieve 60-80% confluency the following day. The DNA and transfection reagent were mixed and added to the medium. Cell lysates were collected at least 30 hours after transfection. For luciferase assay, cells were collected in 200 μl of lysis buffer (Promega) of which 10μl was used for the luciferase and β-Gal activity assays respectively. Luciferase activity was determined by using the luciferin reagent (Promega) according to manufacture's protocol. […]

PR protein = PR protein levels on over-expression of PSF in 293T cells; type: cell-based; details: 293T cells
[1] = biological target: T1, His-PSF (6xHis-tagged full length human …); experiment: GST pulldown of ^35S-labeled PSF, autoradiography
Procedure: Bands were excised, reduced, allcylated and digested in-gel with trypsin as described (21). Tryptic peptides were extracted from the gel, desalted using ZipTip desalting columns (Millipore, Bedford, Mass.), equilibrated in 5% formic acid, washed with equilibration buffer and eluted in a solution of 5% formic acid and 60% methanol. Tandem mass spectrometry analysis was performed by using a nano-electrospray ionization (ESI) source (Protana A/S) coupled to a high-performance hybrid quadrapole time-of-flight API QSTARTM Pulsar mass spectrometer (MDS-Sciex, Concord, ON, Canada). After tryptic ion candidates were identified, product ion spectra were generated by collision-induced dissociation. For product ion scans, the collision energy was determined experimentally. Sequence and mass information of the peptides was used to screen the NRDB and dbEST databases. Databases were searched using the Mascot MS/MS search engine (Matrix Science, London, UK). […] Cells were plated at 150 mm diameter dish and grown to 60% confluent before transfection. Total of 15 μg plasmid was transfected by Exgen 500 (Fermantas). Eighteen hours after transfection, cells were washed two times ice-cold phosphate-buffered saline (PBS) then lysed in NETN buffer plus protease inhibitor cocktail. Protein concentration of the whole cell lysate (WCL) was determined by the Bradford assay and the WCL was diluted to 1 mg/ml in NETN. A 900 μl aliquot of WCL was incubated for overnight at 4° C. in suspension with either anti-His tag or anti-PR antibody, followed by the addition of 30 μl of protein A/G PLUS-agarose beads (Santa Cruz) for another two hours at 4° C. Resins were washed with NETN and eluted with 1×Laemmli buffer, boiled, and centrifuged. The supernatant was separated by SDS- 8% PAGE, electrophoresed to PVDF membrane, and visualized by ECL.

Row | Molecule | binding result [1] | further results
1 | CC(C)C[C@@H](C=O)NC(=O)[C@H](CC(C)C)NC(=O)[C@H](CC(C)C)NC(=O)OCc1ccccc1 [MG132, Z-Leu-Leu-Leu-a1, reference compound] (Cbz-Leu-Leu-Leu-aldehyde) |  | effect on PSF-induced loss of PR protein (PRA and PRB protein; final concentration of 60 μM for an additional 6 hours): block the loss of PR protein; effect on PSF-induced reduction of PR protein levels (PR protein): rescued
2 | B1 | no binding | 
3 | B2 | no binding | 
4 | B3 | no binding | 
5 | B4 |  | PR proteins after co-transfection with PRB/PRA (PRA and PRB protein; after 24 hours): total loss of PR proteins
